{"source": "paper doi:10.1101/2023.03.13.532385", "key": {"[1]": {"molecular_target": "composite αS/N-protein fibrils (fibril strain s1, from plateau p1) (human | SARS-CoV-2) (UniProt P37840)", "assay": "co-sedimentation"}, "[2]": {"molecular_target": "human alpha-synuclein wild-type (human) (UniProt P37840)", "assay": "co-sedimentation"}}, "data": [{"substance": "human alpha-synuclein wild-type (from UniProt P37840 1-140) (natural protein)", "values": [{"measurement": "αS aggregated into fibrils at p1", "setting": "[1]", "value": 8, "unit": "µM"}, {"measurement": "αS aggregated into fibrils at p2", "setting": "[2]", "value": 24, "unit": "µM"}]}]}
